# Laboratory results reported in paper PMC4514675, “Novel Apo E-Derived ABCA1 Agonist Peptide (CS-6253) Promotes Reverse Cholesterol Transport and Induces Formation of preβ-1 HDL In Vitro” (PLoS ONE, 2015).
# Biological target: ABCA1 (Homo sapiens, UniProt O95477)
# Assay: ABCA1-mediated phospholipid efflux from BHK-ABCA1 cells
# Format: cell-based
# Parameters: expressed in transfected cells; host or cells: BHK cells, stably transfected, induced with 10 nM mifepristone
# Settings: mean of triplicates ± SD, n = 3
# Experimental: Supplementary file pone.0131997.s003.tif: S2 Fig Phospholipid efflux from BHK cells expressing ABCA1 to increasing concentrations of lipid free CS-6253 and apo A-I. Baby hamster kidney (BHK) cells were labeled with ^3[H]-choline. ABCA1 expression was induced by treating BHK cells with 10 nM mifepristone. Cells were then changed into fresh DMEM medium [no apolipoprotein A-I (apoA-I)] and incubated with apoA-I or CS-6253 (0.96 uM). Medium was collected after 2 h. […] Results represent the mean of triplicates ± SD, n = 3. (TIF) Click here for additional data file.
# Cells were seeded (50×10^3 cells) in 24 well plates containing DMEM plus 10% FBS with 3 μCi/ml ^3H-choline chloride (Perkin Elmer, Norwalk, Connecticut), for 72 hours as previously reported with minor changes). Cells were then put into induction medium for 18–20 h (10 nM mifepristone). This was followed by incubation with increased molar doses of apo A-I and CS-6253 for 2 h at 37°C. Efflux medium was collected, and cellular lipids were extracted with hexane/isopropanol (3:2 v/v), while total phospholipids from the medium were extracted in chloroform /methanol (2:1 v/v). Efflux was determined as percent of total ^3[H] Phospholipids in the medium. All results were conformed at least twice. (S2 Fig.)
# Chain of ABCA1 (O95477 whole entry): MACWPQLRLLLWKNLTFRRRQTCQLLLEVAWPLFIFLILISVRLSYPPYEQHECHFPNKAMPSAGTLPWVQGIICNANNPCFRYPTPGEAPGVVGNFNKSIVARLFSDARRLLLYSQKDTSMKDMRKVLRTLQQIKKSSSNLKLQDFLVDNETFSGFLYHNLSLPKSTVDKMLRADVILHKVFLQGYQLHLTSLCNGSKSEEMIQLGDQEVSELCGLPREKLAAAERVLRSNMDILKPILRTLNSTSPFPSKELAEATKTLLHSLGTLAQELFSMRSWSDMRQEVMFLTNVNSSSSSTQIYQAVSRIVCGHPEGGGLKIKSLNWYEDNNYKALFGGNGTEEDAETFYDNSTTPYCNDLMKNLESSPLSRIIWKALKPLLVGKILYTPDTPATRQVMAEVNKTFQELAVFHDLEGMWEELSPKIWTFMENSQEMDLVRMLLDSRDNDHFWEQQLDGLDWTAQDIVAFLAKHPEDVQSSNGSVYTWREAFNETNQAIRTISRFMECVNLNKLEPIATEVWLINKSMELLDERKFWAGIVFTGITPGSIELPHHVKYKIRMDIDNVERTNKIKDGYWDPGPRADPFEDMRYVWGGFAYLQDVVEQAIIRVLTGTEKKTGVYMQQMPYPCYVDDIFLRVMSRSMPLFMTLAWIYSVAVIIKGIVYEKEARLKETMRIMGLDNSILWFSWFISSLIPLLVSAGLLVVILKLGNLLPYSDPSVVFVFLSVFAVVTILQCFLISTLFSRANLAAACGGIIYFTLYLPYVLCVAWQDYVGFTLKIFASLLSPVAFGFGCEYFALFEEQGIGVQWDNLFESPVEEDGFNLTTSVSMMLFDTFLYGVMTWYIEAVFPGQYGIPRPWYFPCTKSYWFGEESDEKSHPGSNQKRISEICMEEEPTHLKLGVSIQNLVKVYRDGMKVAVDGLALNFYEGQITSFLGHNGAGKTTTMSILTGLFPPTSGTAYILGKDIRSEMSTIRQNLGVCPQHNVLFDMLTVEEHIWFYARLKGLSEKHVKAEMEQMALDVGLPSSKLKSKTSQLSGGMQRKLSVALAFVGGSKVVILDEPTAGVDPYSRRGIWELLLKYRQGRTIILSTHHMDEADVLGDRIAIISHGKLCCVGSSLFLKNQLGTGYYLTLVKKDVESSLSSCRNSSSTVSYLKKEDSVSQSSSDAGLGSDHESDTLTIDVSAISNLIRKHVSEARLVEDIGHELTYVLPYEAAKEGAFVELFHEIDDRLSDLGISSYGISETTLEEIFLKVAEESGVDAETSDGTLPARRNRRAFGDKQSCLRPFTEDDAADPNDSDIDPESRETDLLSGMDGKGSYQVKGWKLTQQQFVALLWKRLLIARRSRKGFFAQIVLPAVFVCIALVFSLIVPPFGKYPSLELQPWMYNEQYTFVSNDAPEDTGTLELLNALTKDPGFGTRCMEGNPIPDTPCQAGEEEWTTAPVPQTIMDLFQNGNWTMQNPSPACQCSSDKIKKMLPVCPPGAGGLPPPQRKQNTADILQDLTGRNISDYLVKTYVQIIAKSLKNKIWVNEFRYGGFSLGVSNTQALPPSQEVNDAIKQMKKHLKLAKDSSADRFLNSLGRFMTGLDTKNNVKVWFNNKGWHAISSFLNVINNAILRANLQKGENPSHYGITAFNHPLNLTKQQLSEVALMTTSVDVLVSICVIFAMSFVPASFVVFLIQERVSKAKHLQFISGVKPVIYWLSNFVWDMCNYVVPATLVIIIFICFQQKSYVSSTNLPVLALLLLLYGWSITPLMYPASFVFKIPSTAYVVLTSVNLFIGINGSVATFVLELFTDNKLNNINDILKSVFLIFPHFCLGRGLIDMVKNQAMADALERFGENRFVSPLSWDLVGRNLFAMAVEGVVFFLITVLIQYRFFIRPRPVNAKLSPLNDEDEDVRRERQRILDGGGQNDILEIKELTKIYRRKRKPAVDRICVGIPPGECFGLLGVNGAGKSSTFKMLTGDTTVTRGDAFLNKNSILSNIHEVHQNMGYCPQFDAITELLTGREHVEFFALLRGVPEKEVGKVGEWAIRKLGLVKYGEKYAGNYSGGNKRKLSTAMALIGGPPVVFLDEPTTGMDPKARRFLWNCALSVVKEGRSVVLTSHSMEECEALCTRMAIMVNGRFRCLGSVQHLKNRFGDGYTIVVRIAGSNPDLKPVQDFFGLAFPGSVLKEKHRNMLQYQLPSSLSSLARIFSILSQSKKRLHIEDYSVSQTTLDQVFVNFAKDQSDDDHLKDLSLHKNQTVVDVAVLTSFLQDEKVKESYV
substance,measurement,setting,value
apolipoprotein A-I [apo A-I],Km,2 h,0.14 ± 0.02 µM
same,"Km, phospholipid efflux",2 h,3.65 ± 0.49 µg/mL
same,"Vmax, phospholipid efflux",,0.77±0.02 % efflux/2h
